Here are results for three molecules from patent US20080267974A1 (SCHERING, published 2008).

Positions count from the first letter of the chain named. Where “and” joins values, the source holds several entries; their conditions need not be identical. Equal values may be shown once. Read-outs that look alike come from different tables or passages of the source.

Test [1] addresses T1, tumor necrosis factor alpha (TNFα) (human, UniProt P01375 77-233). The test is described as follows: Biacore (SPR); MAb captured by immobilised goat anti-human IgG polyclonal antibody, TNFα as analyte. Background: In SPR one partner is held on a chip, and binding of the other changes the refractive index at the surface.
In test [2] the target is T1, tumor necrosis factor alpha (TNFα). The test is described as follows: affinity by IC50 ELISA (so named in paragraph 380). In general terms: ELISA stands for enzyme-linked immunosorbent assay.
Test [3] shares this target. The test is described as follows: affinity by IC50 ELISA (so named in paragraph 380). This is another data set of the same source.
The target is the same in test [4]. The test is described as follows: cell-based or functional assay.
The target is the same in test [5]. In words: affinity by IC50 ELISA (so named in paragraph 380). The source holds these as a separate data set.

T1 sequence (P01375 77-233 limits assumed): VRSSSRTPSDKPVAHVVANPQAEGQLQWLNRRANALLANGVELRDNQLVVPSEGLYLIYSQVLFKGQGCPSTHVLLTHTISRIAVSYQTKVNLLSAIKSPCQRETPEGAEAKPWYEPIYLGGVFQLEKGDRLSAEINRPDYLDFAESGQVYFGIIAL

Consider Humira® (antibody), for which, in test [1], the Ka is 3.31e+10 M⁻¹ and the Kd – broadly, the constant that tells how readily two partners part at equilibrium – is 0.0303 nM. Further, in test [2], the Affinity came to 0.09 nM.

B1: MAb 2071 (antibody, V domains shown)
VH: EVQLVESGGGLIQPGGSLRLSCAVSGLNVSRDYMSWVRQAPGKGLEWISVIYRGGVTMYADSVKGRFTISRDTSKNTVFLQMSRLKVADTAVYYCARNYYGSTLDYWGQGTLVTVSS
VL: EIVLTQSPATLSVSPGERASLSCRASQNIYTAVAWYQQKPGQAPRLLIYNAATRATGIPARFSGGGSGTDYTLTISSLESEDFAVYHCQQWHSWPLTFGGGTKLEIK
notes: IgG1/kappa, CHO; also called H1844/L472
In the case of B1, the Affinity in test [3] is 0.01 nM. For the same molecule, in test [4], the “IC50, TNFα cytotoxicity assay (WEHI-13VAR cells)” value is 0.03 nM and 0.04 nM. Besides, in test [1], the Ka stood at 1.77e+11 M⁻¹; the Kd was determined as 0.0057 nM; the off-rate (koff) (as a rule, the rate constant with which the complex falls apart) was found to be 3.91e-05 s⁻¹; the kon – broadly, the second-order rate constant of association – was 6.92e+06 M⁻¹ s⁻¹. In addition, the Affinity in test [5] was determined as 0.01 nM.

B2: MAb 2090 (antibody, V domains shown)
VH: B1 VH with G54I, V56A
VL: B1 VL
notes: IgG1/kappa, CHO; also called H1813/L472
In the case of B2, in test [3], the Affinity came out at 0.02 nM. In test [4], the “IC50, TNFα cytotoxicity assay (WEHI-13VAR cells)” value worked out at 0.09 nM. In test [1], this molecule displayed a Ka of 1.2e+11 M⁻¹, an equilibrium dissociation constant (Kd) of 0.0084 nM, a dissociation rate constant (koff) of 5.42e-05 s⁻¹ and a kon of 6.49e+06 M⁻¹ s⁻¹. The Affinity in test [5] was 0.02 nM.
